Reference: publication PMC4052767 (Genes & Development, 2014)

T1: Yeast Hat2p (full length) with N-terminal 6xHis tag (yeast (Saccharomyces cerevisiae), UniProt P39984 1-401)
T1 sequence: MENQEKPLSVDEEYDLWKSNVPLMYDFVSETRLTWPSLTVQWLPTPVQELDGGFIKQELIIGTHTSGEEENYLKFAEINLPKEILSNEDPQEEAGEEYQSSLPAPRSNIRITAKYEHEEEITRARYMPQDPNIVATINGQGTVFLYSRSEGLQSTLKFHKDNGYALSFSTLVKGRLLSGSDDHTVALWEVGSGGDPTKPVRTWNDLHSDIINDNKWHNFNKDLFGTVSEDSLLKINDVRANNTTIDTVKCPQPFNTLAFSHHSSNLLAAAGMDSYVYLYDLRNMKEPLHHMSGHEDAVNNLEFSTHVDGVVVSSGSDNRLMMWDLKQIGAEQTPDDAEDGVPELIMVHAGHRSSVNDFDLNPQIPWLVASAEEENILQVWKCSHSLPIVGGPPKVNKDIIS


Legend:
[1] = target: T1, Yeast Hat2p (full length) with …; assay: pull-down
[2] = target: T1, Yeast Hat2p (full length) with …; assay: crystal structure

binding result [1] | binding result [2] | Binder
binds | – | Hat1p Y37A (enzyme) MSANDFKPETWTSSANEALRVSIVGENAVQFSPLFTAPIYGDSEKIYGYKDLIIHLAFDSVTFKPYVNVKYSAKLGDDNIVDVEKKLLSFLPKDDVIVRDEAKWVDCFAEERKTHNLSDVFEKVSEYSLNGEEFVVYKSSLVDDFARRMHRRVQIFSLLFIEAANYIDETDPSWQIYWLLNKKTKELIGFVTTYKYWHYLGAKSFDEDIDKKFRAKISQFLIFPPYQNKGHGSCLYEAIIQSWLEDKSITEITVEDPNEAFDDLRDRNDIQRLRKLGYDAVFQKHSDLSDEFLESSRKSLKLEERQFNRLVEMLLLLNNS
binds | – | Hat1p A202D (enzyme) MSANDFKPETWTSSANEALRVSIVGENAVQFSPLFTYPIYGDSEKIYGYKDLIIHLAFDSVTFKPYVNVKYSAKLGDDNIVDVEKKLLSFLPKDDVIVRDEAKWVDCFAEERKTHNLSDVFEKVSEYSLNGEEFVVYKSSLVDDFARRMHRRVQIFSLLFIEAANYIDETDPSWQIYWLLNKKTKELIGFVTTYKYWHYLGDKSFDEDIDKKFRAKISQFLIFPPYQNKGHGSCLYEAIIQSWLEDKSITEITVEDPNEAFDDLRDRNDIQRLRKLGYDAVFQKHSDLSDEFLESSRKSLKLEERQFNRLVEMLLLLNNS
binds | – | Hat1p Y196A (enzyme) MSANDFKPETWTSSANEALRVSIVGENAVQFSPLFTYPIYGDSEKIYGYKDLIIHLAFDSVTFKPYVNVKYSAKLGDDNIVDVEKKLLSFLPKDDVIVRDEAKWVDCFAEERKTHNLSDVFEKVSEYSLNGEEFVVYKSSLVDDFARRMHRRVQIFSLLFIEAANYIDETDPSWQIYWLLNKKTKELIGFVTTYKAWHYLGAKSFDEDIDKKFRAKISQFLIFPPYQNKGHGSCLYEAIIQSWLEDKSITEITVEDPNEAFDDLRDRNDIQRLRKLGYDAVFQKHSDLSDEFLESSRKSLKLEERQFNRLVEMLLLLNNS
– | binds | ARTKQTARKSTGGKA [H3 peptide (residues 1-15), unmodified]

The remaining lines, values behind:

Binder | binding result [1] | binding result [2]
Yeast Hat1p (1-320) (enzyme) MSANDFKPETWTSSANEALRVSIVGENAVQFSPLFTYPIYGDSEKIYGYKDLIIHLAFDSVTFKPYVNVKYSAKLGDDNIVDVEKKLLSFLPKDDVIVRDEAKWVDCFAEERKTHNLSDVFEKVSEYSLNGEEFVVYKSSLVDDFARRMHRRVQIFSLLFIEAANYIDETDPSWQIYWLLNKKTKELIGFVTTYKYWHYLGAKSFDEDIDKKFRAKISQFLIFPPYQNKGHGSCLYEAIIQSWLEDKSITEITVEDPNEAFDDLRDRNDIQRLRKLGYDAVFQKHSDLSDEFLESSRKSLKLEERQFNRLVEMLLLLNNS | binds | –
Hat1p A163Y (enzyme) MSANDFKPETWTSSANEALRVSIVGENAVQFSPLFTYPIYGDSEKIYGYKDLIIHLAFDSVTFKPYVNVKYSAKLGDDNIVDVEKKLLSFLPKDDVIVRDEAKWVDCFAEERKTHNLSDVFEKVSEYSLNGEEFVVYKSSLVDDFARRMHRRVQIFSLLFIEYANYIDETDPSWQIYWLLNKKTKELIGFVTTYKYWHYLGAKSFDEDIDKKFRAKISQFLIFPPYQNKGHGSCLYEAIIQSWLEDKSITEITVEDPNEAFDDLRDRNDIQRLRKLGYDAVFQKHSDLSDEFLESSRKSLKLEERQFNRLVEMLLLLNNS | binds | –
Hat1p Y194A (enzyme) MSANDFKPETWTSSANEALRVSIVGENAVQFSPLFTYPIYGDSEKIYGYKDLIIHLAFDSVTFKPYVNVKYSAKLGDDNIVDVEKKLLSFLPKDDVIVRDEAKWVDCFAEERKTHNLSDVFEKVSEYSLNGEEFVVYKSSLVDDFARRMHRRVQIFSLLFIEAANYIDETDPSWQIYWLLNKKTKELIGFVTTAKYWHYLGAKSFDEDIDKKFRAKISQFLIFPPYQNKGHGSCLYEAIIQSWLEDKSITEITVEDPNEAFDDLRDRNDIQRLRKLGYDAVFQKHSDLSDEFLESSRKSLKLEERQFNRLVEMLLLLNNS | binds | –
